{
  "source": "patent US20220062341A1",
  "about": "(KIRIN, published 2022)",
  "data": [
    {"molecular_target": "CD3 subunits (CD3E, CD3G, CD3D, CD3Z) (human, UniProt P07766 23-207; P09693 23-182; P04234 22-171; P20963 22-164)", "sequence (P07766 23-207, chain 1 of 4)": "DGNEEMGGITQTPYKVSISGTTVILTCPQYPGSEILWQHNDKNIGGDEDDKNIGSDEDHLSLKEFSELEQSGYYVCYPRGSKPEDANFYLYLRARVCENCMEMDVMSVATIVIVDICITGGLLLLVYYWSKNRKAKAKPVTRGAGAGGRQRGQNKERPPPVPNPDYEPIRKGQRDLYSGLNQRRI", "sequence (P09693 23-182, chain 2 of 4)": "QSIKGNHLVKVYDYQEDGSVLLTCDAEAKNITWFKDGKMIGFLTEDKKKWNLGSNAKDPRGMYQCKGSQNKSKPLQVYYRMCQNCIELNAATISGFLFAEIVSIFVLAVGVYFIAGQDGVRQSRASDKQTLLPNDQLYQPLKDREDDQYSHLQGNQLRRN", "sequence (P04234 22-171, chain 3 of 4)": "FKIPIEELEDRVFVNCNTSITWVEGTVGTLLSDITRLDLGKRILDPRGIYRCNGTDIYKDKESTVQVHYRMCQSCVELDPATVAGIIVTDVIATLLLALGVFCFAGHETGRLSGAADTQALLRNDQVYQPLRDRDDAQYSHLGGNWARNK", "sequence (P20963 22-164, chain 4 of 4)": "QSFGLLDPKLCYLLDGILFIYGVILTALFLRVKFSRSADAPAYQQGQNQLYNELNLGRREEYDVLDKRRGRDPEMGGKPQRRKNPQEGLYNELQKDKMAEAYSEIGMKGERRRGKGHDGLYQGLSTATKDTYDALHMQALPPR", "test": "cell-based or functional assay", "units": {"CD3-recruiting activity (CD3-positive proportion, N=3), CD3-stably expressing 293T cells": "%"}, "values": [
      {"binder": "modified TCR consisting of β11 and α4 (TCR) TCR alpha: DVYITDKTVLDMRSMDFKSNSAVAWSNKSDFACANAFNNSIIPEDTFFPSPESSCDVKLVEKSFETDTNLNFQNLSVIGFRILLLKVAGFNLLMTLRLWSS TCR beta: EWTQDRAKPVTQIVSAEAWGRADCGFTSESYQQGVLSATILYEILLGKATLYAVLVSALVLMAMVKRKDSRG", "CD3-recruiting activity (CD3-positive proportion, N=3), CD3-stably expressing 293T cells": "≥ 20"},
      {"binder": "modified TCR consisting of β12 and α4 (TCR) TCR alpha: DVYITDKTVLDMRSMDFKSNSAVAWSNKSDFACANAFNNSIIPEDTFFPSPESSCDVKLVEKSFETDTNLNFQNLSVIGFRILLLKVAGFNLLMTLRLWSS TCR beta: AKPVTQIVSAEAWGRADCGFTSESYQQGVLSATILYEILLGKATLYAVLVSALVLMAMVKRKDSRG", "CD3-recruiting activity (CD3-positive proportion, N=3), CD3-stably expressing 293T cells": "≥ 20"},
      {"binder": "modified TCR consisting of β11 and α8 (TCR) TCR alpha: CANAFNNSIIPEDTFFPSPESSCDVKLVEKSFETDTNLNFQNLSVIGFRILLLKVAGFNLLMTLRLWSS TCR beta: EWTQDRAKPVTQIVSAEAWGRADCGFTSESYQQGVLSATILYEILLGKATLYAVLVSALVLMAMVKRKDSRG", "CD3-recruiting activity (CD3-positive proportion, N=3), CD3-stably expressing 293T cells": "≥ 20"},
      {"binder": "modified TCR consisting of β11 and α7 (TCR) TCR alpha: SNKSDFACANAFNNSIIPEDTFFPSPESSCDVKLVEKSFETDTNLNFQNLSVIGFRILLLKVAGFNLLMTLRLWSS TCR beta: EWTQDRAKPVTQIVSAEAWGRADCGFTSESYQQGVLSATILYEILLGKATLYAVLVSALVLMAMVKRKDSRG", "CD3-recruiting activity (CD3-positive proportion, N=3), CD3-stably expressing 293T cells": "≥ 20"},
      {"binder": "modified TCR consisting of β11 and α9 (TCR) TCR alpha: FNNSIIPEDTFFPSPESSCDVKLVEKSFETDTNLNFQNLSVIGFRILLLKVAGFNLLMTLRLWSS TCR beta: EWTQDRAKPVTQIVSAEAWGRADCGFTSESYQQGVLSATILYEILLGKATLYAVLVSALVLMAMVKRKDSRG", "CD3-recruiting activity (CD3-positive proportion, N=3), CD3-stably expressing 293T cells": "≥ 20"},
      {"binder": "modified TCR consisting of β11 and α5 (TCR) TCR alpha: LDMRSMDFKSNSAVAWSNKSDFACANAFNNSIIPEDTFFPSPESSCDVKLVEKSFETDTNLNFQNLSVIGFRILLLKVAGFNLLMTLRLWSS TCR beta: EWTQDRAKPVTQIVSAEAWGRADCGFTSESYQQGVLSATILYEILLGKATLYAVLVSALVLMAMVKRKDSRG", "CD3-recruiting activity (CD3-positive proportion, N=3), CD3-stably expressing 293T cells": "≥ 20"},
      {"binder": "modified TCR consisting of β11 and α6 (TCR) TCR alpha: KSNSAVAWSNKSDFACANAFNNSIIPEDTFFPSPESSCDVKLVEKSFETDTNLNFQNLSVIGFRILLLKVAGFNLLMTLRLWSS TCR beta: EWTQDRAKPVTQIVSAEAWGRADCGFTSESYQQGVLSATILYEILLGKATLYAVLVSALVLMAMVKRKDSRG", "CD3-recruiting activity (CD3-positive proportion, N=3), CD3-stably expressing 293T cells": "≥ 20"},
      {"binder": "modified TCR consisting of β12 and α5 (TCR) TCR alpha: LDMRSMDFKSNSAVAWSNKSDFACANAFNNSIIPEDTFFPSPESSCDVKLVEKSFETDTNLNFQNLSVIGFRILLLKVAGFNLLMTLRLWSS TCR beta: AKPVTQIVSAEAWGRADCGFTSESYQQGVLSATILYEILLGKATLYAVLVSALVLMAMVKRKDSRG", "CD3-recruiting activity (CD3-positive proportion, N=3), CD3-stably expressing 293T cells": "≥ 20"},
      {"binder": "modified TCR consisting of β12 and α6 (TCR) TCR alpha: KSNSAVAWSNKSDFACANAFNNSIIPEDTFFPSPESSCDVKLVEKSFETDTNLNFQNLSVIGFRILLLKVAGFNLLMTLRLWSS TCR beta: AKPVTQIVSAEAWGRADCGFTSESYQQGVLSATILYEILLGKATLYAVLVSALVLMAMVKRKDSRG", "CD3-recruiting activity (CD3-positive proportion, N=3), CD3-stably expressing 293T cells": "≥ 20"},
      {"binder": "modified TCR consisting of β12 and α9 (TCR) TCR alpha: FNNSIIPEDTFFPSPESSCDVKLVEKSFETDTNLNFQNLSVIGFRILLLKVAGFNLLMTLRLWSS TCR beta: AKPVTQIVSAEAWGRADCGFTSESYQQGVLSATILYEILLGKATLYAVLVSALVLMAMVKRKDSRG", "CD3-recruiting activity (CD3-positive proportion, N=3), CD3-stably expressing 293T cells": "≥ 20"},
      {"binder": "modified TCR consisting of β12 and α7 (TCR) TCR alpha: SNKSDFACANAFNNSIIPEDTFFPSPESSCDVKLVEKSFETDTNLNFQNLSVIGFRILLLKVAGFNLLMTLRLWSS TCR beta: AKPVTQIVSAEAWGRADCGFTSESYQQGVLSATILYEILLGKATLYAVLVSALVLMAMVKRKDSRG", "CD3-recruiting activity (CD3-positive proportion, N=3), CD3-stably expressing 293T cells": "≥ 20"},
      {"binder": "modified TCR consisting of β12 and α8 (TCR) TCR alpha: CANAFNNSIIPEDTFFPSPESSCDVKLVEKSFETDTNLNFQNLSVIGFRILLLKVAGFNLLMTLRLWSS TCR beta: AKPVTQIVSAEAWGRADCGFTSESYQQGVLSATILYEILLGKATLYAVLVSALVLMAMVKRKDSRG", "CD3-recruiting activity (CD3-positive proportion, N=3), CD3-stably expressing 293T cells": "≥ 20"},
      {"binder": "modified TCR consisting of β12 and α10 (TCR) TCR alpha: IPEDTFFPSPESSCDVKLVEKSFETDTNLNFQNLSVIGFRILLLKVAGFNLLMTLRLWSS TCR beta: AKPVTQIVSAEAWGRADCGFTSESYQQGVLSATILYEILLGKATLYAVLVSALVLMAMVKRKDSRG", "CD3-recruiting activity (CD3-positive proportion, N=3), CD3-stably expressing 293T cells": "≥ 20"},
      {"binder": "modified TCR consisting of β10 and α10 (TCR) TCR alpha: IPEDTFFPSPESSCDVKLVEKSFETDTNLNFQNLSVIGFRILLLKVAGFNLLMTLRLWSS TCR beta: YGLSENDEWTQDRAKPVTQIVSAEAWGRADCGFTSESYQQGVLSATILYEILLGKATLYAVLVSALVLMAMVKRKDSRG", "CD3-recruiting activity (CD3-positive proportion, N=3), CD3-stably expressing 293T cells": "≥ 20"},
      {"binder": "modified TCR consisting of β11 and α10 (TCR) TCR alpha: IPEDTFFPSPESSCDVKLVEKSFETDTNLNFQNLSVIGFRILLLKVAGFNLLMTLRLWSS TCR beta: EWTQDRAKPVTQIVSAEAWGRADCGFTSESYQQGVLSATILYEILLGKATLYAVLVSALVLMAMVKRKDSRG", "CD3-recruiting activity (CD3-positive proportion, N=3), CD3-stably expressing 293T cells": "≥ 20"},
      {"binder": "modified TCR consisting of β10 and α3 (TCR) TCR alpha: NVSQSKDSDVYITDKTVLDMRSMDFKSNSAVAWSNKSDFACANAFNNSIIPEDTFFPSPESSCDVKLVEKSFETDTNLNFQNLSVIGFRILLLKVAGFNLLMTLRLWSS TCR beta: YGLSENDEWTQDRAKPVTQIVSAEAWGRADCGFTSESYQQGVLSATILYEILLGKATLYAVLVSALVLMAMVKRKDSRG", "CD3-recruiting activity (CD3-positive proportion, N=3), CD3-stably expressing 293T cells": "≥ 20"},
      {"binder": "modified TCR consisting of β10 and α4 (TCR) TCR alpha: DVYITDKTVLDMRSMDFKSNSAVAWSNKSDFACANAFNNSIIPEDTFFPSPESSCDVKLVEKSFETDTNLNFQNLSVIGFRILLLKVAGFNLLMTLRLWSS TCR beta: YGLSENDEWTQDRAKPVTQIVSAEAWGRADCGFTSESYQQGVLSATILYEILLGKATLYAVLVSALVLMAMVKRKDSRG", "CD3-recruiting activity (CD3-positive proportion, N=3), CD3-stably expressing 293T cells": "≥ 20"},
      {"binder": "modified TCR consisting of β10 and α6 (TCR) TCR alpha: KSNSAVAWSNKSDFACANAFNNSIIPEDTFFPSPESSCDVKLVEKSFETDTNLNFQNLSVIGFRILLLKVAGFNLLMTLRLWSS TCR beta: YGLSENDEWTQDRAKPVTQIVSAEAWGRADCGFTSESYQQGVLSATILYEILLGKATLYAVLVSALVLMAMVKRKDSRG", "CD3-recruiting activity (CD3-positive proportion, N=3), CD3-stably expressing 293T cells": "≥ 20"},
      {"binder": "modified TCR consisting of β10 and α5 (TCR) TCR alpha: LDMRSMDFKSNSAVAWSNKSDFACANAFNNSIIPEDTFFPSPESSCDVKLVEKSFETDTNLNFQNLSVIGFRILLLKVAGFNLLMTLRLWSS TCR beta: YGLSENDEWTQDRAKPVTQIVSAEAWGRADCGFTSESYQQGVLSATILYEILLGKATLYAVLVSALVLMAMVKRKDSRG", "CD3-recruiting activity (CD3-positive proportion, N=3), CD3-stably expressing 293T cells": "≥ 20"},
      {"binder": "modified TCR consisting of β10 and α9 (TCR) TCR alpha: FNNSIIPEDTFFPSPESSCDVKLVEKSFETDTNLNFQNLSVIGFRILLLKVAGFNLLMTLRLWSS TCR beta: YGLSENDEWTQDRAKPVTQIVSAEAWGRADCGFTSESYQQGVLSATILYEILLGKATLYAVLVSALVLMAMVKRKDSRG", "CD3-recruiting activity (CD3-positive proportion, N=3), CD3-stably expressing 293T cells": "≥ 20"},
      {"binder": "modified TCR consisting of β10 and α8 (TCR) TCR alpha: CANAFNNSIIPEDTFFPSPESSCDVKLVEKSFETDTNLNFQNLSVIGFRILLLKVAGFNLLMTLRLWSS TCR beta: YGLSENDEWTQDRAKPVTQIVSAEAWGRADCGFTSESYQQGVLSATILYEILLGKATLYAVLVSALVLMAMVKRKDSRG", "CD3-recruiting activity (CD3-positive proportion, N=3), CD3-stably expressing 293T cells": "≥ 20"},
      {"binder": "modified TCR consisting of β12 and α3 (TCR) TCR alpha: NVSQSKDSDVYITDKTVLDMRSMDFKSNSAVAWSNKSDFACANAFNNSIIPEDTFFPSPESSCDVKLVEKSFETDTNLNFQNLSVIGFRILLLKVAGFNLLMTLRLWSS TCR beta: AKPVTQIVSAEAWGRADCGFTSESYQQGVLSATILYEILLGKATLYAVLVSALVLMAMVKRKDSRG", "CD3-recruiting activity (CD3-positive proportion, N=3), CD3-stably expressing 293T cells": "≥ 20"},
      {"binder": "modified TCR consisting of β10 and α7 (TCR) TCR alpha: SNKSDFACANAFNNSIIPEDTFFPSPESSCDVKLVEKSFETDTNLNFQNLSVIGFRILLLKVAGFNLLMTLRLWSS TCR beta: YGLSENDEWTQDRAKPVTQIVSAEAWGRADCGFTSESYQQGVLSATILYEILLGKATLYAVLVSALVLMAMVKRKDSRG", "CD3-recruiting activity (CD3-positive proportion, N=3), CD3-stably expressing 293T cells": "≥ 20"},
      {"binder": "modified TCR consisting of β11 and α3 (TCR) TCR alpha: NVSQSKDSDVYITDKTVLDMRSMDFKSNSAVAWSNKSDFACANAFNNSIIPEDTFFPSPESSCDVKLVEKSFETDTNLNFQNLSVIGFRILLLKVAGFNLLMTLRLWSS TCR beta: EWTQDRAKPVTQIVSAEAWGRADCGFTSESYQQGVLSATILYEILLGKATLYAVLVSALVLMAMVKRKDSRG", "CD3-recruiting activity (CD3-positive proportion, N=3), CD3-stably expressing 293T cells": "≥ 20"}
    ]},
    {"molecular_target": "CD3E (human, UniProt P07766 23-207)", "sequence (P07766 23-207)": "as the sequence (P07766 23-207, chain 1 of 4) above", "test": "cell-based or functional assay", "units": {"CD3E-positive proportion [%] (Avg, n = 2), CD3-stably expressing 293T cells": "%"}, "values": [
      {"binder": "modified TCR ba10 (TCR) TCR alpha: IPEDTFFPSPESSCDVKLVEKSFETDTNLNFQNLSVIGFRILLLKVAGFNLLMTLRLWSS TCR beta: EDLKNVFPPEVAVFEPSEAEISHTQKATLVCLATGFYPDHVELSWWVNGKEVHSGVSTDPQPLKEQPALNDSRYCLSSRLRVSATFWQNPRNHFRCQVQFYGLSENDEWTQDRAKPVTQIVSAEAWGRADCGFTSESYQQGVLSATILYEILLGKATLYAVLVSALVLMAMVKRKDSRG", "CD3E-positive proportion [%] (Avg, n = 2), CD3-stably expressing 293T cells": 86.5}
    ]}
  ]
}
